B1: PACT-D3 (PACT residues 239-313, core dsRBD 3), wild type (domain or fragment, human, UniProt O75569 239-313, looked up)
chain: TDYIQLLSEIAKEQGFNITYLDIDELSANGQYQCLAELSTSPITVCHGSGISCGNAQSDAAHNALQYLKIIAERK
notes: Grown in M9 with 15N ammonium chloride (and 13C glucose for 3D NMR samples); also called WT PACT-D3; source: E. coli BL21 (DE3), purified (HisTrap, tag removed with 3C protease, Superdex S75); not shown: His6, N-terminal, cleaved; MBP, N-terminal, cleaved
B2: Loqs-D3 (Loquacious residues 392-463, dsRBD 3), wild type (domain or fragment, Drosophila, UniProt Q9VJY9 392-463, looked up)
chain: IDYIKLLGEIATENQFEVTYVDIEEKTFSGQFQCLVQLSTLPVGVCHGSGPTAADAQRHAAQNALEYLKIMT
notes: Loquacious (Loqs), Drosophila, residues 392-463 (dsRBD 3, Type B); also called WT Loqs-D3; source: E. coli BL21 (DE3), purified (GSTrap, tag removed with tobacco etch virus protease, size exclusion)
B3: PACT-Ext-D3 (PACT residues 208-313, dsRBD 3 with the conserved N-terminal extension), wild type (domain or fragment, human, UniProt O75569 208-313, looked up)
chain: GHSLGCTWHSLRNSPGEKINLLKRSLLSIPNTDYIQLLSEIAKEQGFNITYLDIDELSANGQYQCLAELSTSPITVCHGSGISCGNAQSDAAHNALQYLKIIAERK
notes: also called WT PACT-Ext-D3; source: E. coli BL21 (DE3), purified (HisTrap, tag removed with 3C protease, Superdex S75); not shown: His6, N-terminal, cleaved; MBP, N-terminal, cleaved
B4: full length (FL) PACT (protein activator of PKR), O75569 1-313 (natural protein)
chain: MSQSRHRAEAPPLEREDSGTFSLGKMITAKPGKTPIQVLHEYGMKTKNIPVYECERSDVQIHVPTFTFRVTVGDITCTGEGTSKKLAKHRAAEAAINILKANASICFAVPDPLMPDPSKQPKNQLNPIGSLQELAIHHGWRLPEYTLSQEGGPAHKREYTTICRLESFMETGKGASKKQAKRNAAEKFLAKFSNISPENHISLTNVVGHSLGCTWHSLRNSPGEKINLLKRSLLSIPNTDYIQLLSEIAKEQGFNITYLDIDELSANGQYQCLAELSTSPITVCHGSGISCGNAQSDAAHNALQYLKIIAERK
B5: R353H,R354N TRBP-Ext-D3 (PACT-like variant of TRBP-Ext-D3) (domain or fragment, human, UniProt Q15633 258-366, looked up)
chain: NRGPGCTWDSLRNSVGEKILSLRSCSLGSLGALGPACCRVLSELSEEQAFHVSYLDIEELSLSGLCQCLVELSTQPATVCHGSATTREAARGEAAHNALQYLKIMAGSK
notes: source: E. coli BL21 (DE3), purified (HisTrap, tag removed with 3C protease, Superdex S75); not shown: His6, N-terminal, cleaved; MBP, N-terminal, cleaved

How the values were obtained:
[1] = target: the molecule itself; experiment: SEC-MALS; SEC-MALLS; Superdex S75 10/30 (except where otherwise noted), 20 mM MES pH 6.5, 200 mM NaCl, 1 mM dithiothreitol, 0.5 ml/minute; 100 μl of protein at 2–5 mg/ml injected
[2] = target: T1, full length (FL) PACT (protein activator of PKR) (human), O75569; experiment: as above; settings: remark: other sources report otherwise
T1 chain: B4 chain

Binder | stoichiometry N [1] | stoichiometry N [2]
B1 | 2 | –
B2 | 2 | –
B3 | 2 | –
B4 | – | 2
B5 | 2 | –
